Paper PMC3317499, “Structural Insights into TIR Domain Specificity of the Bridging Adaptor Mal in TLR4 Signaling” (PLoS ONE, 2012)

T1: GST-TLR4-TIR (TIR domain of human TLR4, residues 670-839, GST fusion) (human, UniProt O00206 670-839)
T1 construct: Toll-like receptor 4 (TLR4), human, TIR domain residues 670-839; pGEX-6P-1 is a bacterial vector; source: E. coli (pGEX-6P-1), purified (glutathione Sepharose 4B, desalting)
T1 sequence (looked up): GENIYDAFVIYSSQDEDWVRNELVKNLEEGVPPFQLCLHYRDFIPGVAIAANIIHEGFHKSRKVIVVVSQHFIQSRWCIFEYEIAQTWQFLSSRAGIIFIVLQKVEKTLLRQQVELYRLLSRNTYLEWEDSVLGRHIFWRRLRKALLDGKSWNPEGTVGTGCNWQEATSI


Assays:
[1] = target: T2, GST-Mal-TIR (TIR domain of human Mal, residues 79-221, GST fusion) (human, UniProt P58753 79-221); assay: pull-down; GST fusion protein and Myc-Mal-TIR mixed with glutathione Sepharose 4B beads, 4°C, 3 hours; washed four times with 20 mM potassium phosphate pH 6.4, 50 mM KCl, 0.1 mM EDTA, 10 mM DTT, 0.5 mM PMSF, 0.5% Triton X-100; SDS-PAGE and anti-Myc immunoblot; conditions: both partners purified
T2 construct: MyD88 adaptor-like protein (Mal, TIRAP), human, UniProtKB P58753, TIR domain residues 79-221; pGEX-6P-1 is a bacterial vector; also called wild type Mal-TIR purified as a GST fusion protein; source: E. coli (pGEX-6P-1), purified (glutathione Sepharose 4B, desalting)

[2] = target: T1, GST-TLR4-TIR (TIR domain of human TLR4, …); assay: as above; conditions: both partners purified
[3] = target: T3, GST-MyD88-TIR (TIR domain of human MyD88, residues 148-296, GST fusion) (human, UniProt Q99836 148-296); assay: as above; conditions: both partners purified
T3 construct: Myeloid differentiation factor 88 (MyD88), human, TIR domain residues 148-296; pGEX-6P-1 is a bacterial vector; source: E. coli (pGEX-6P-1), purified (glutathione Sepharose 4B, desalting)

[4] = target: the molecule itself; assay: crystal structure; Mal-TIR 79-221, space group P4(3)2(1)2, one molecule per asymmetric unit; dimers by crystallographic packing; 100 mM CHES pH 9.5, 150-300 mM NaCl, 10-20% glycerol, 10 mM DTT; 2.4 Å

T3 sequence (Q99836 148-296): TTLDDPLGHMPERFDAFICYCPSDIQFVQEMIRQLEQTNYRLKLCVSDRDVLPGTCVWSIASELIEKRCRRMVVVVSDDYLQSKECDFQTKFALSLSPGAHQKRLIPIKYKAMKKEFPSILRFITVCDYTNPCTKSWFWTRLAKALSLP

| binding result [1] | binding result [2] | binding result [3] | Binder | binding result [4] |
| --- | --- | --- | --- | --- |
| binds | binds | binds | Myc-Mal-TIR wild type (TIR domain of human MyD88 adaptor-like protein, residues 79-221, double-tagged with His6 and Myc) (domain or fragment, UniProt P58753 79-221, looked up, MyD88 adaptor-like protein (Mal, TIRAP), human, UniProtKB P58753, TIR domain residues 79-221; it replaced the S-tag, thioredoxin and the thrombin-cleavable segment of pET32a; also called wild-type Mal-TIR; TIRAP TIR domain; source: E. coli, purified (Ni-NTA, desalting)) SSRWSKDYDVCVCHSEEDLVAAQDLVSYLEGSTASLRCFLQLRDATPGGAIVSELCQALSSSHCRVLLITPGFLQDPWCKYQMLQALTEAPGAEGCTIPLLSGLSRAAYPPELRFMYYVDGRGPDGGFRQVKEAVMRYLQTLS | – |
| – | – | – | Mal-TIR (residues 79-221 of human Mal), crystallised form (domain or fragment, UniProt P58753 79-221, looked up, MyD88 adaptor-like protein (Mal, TIRAP), human, UniProtKB P58753, residues 79-221; The structure has disulfide bonds C89-C134 and C142-C174 and a DTT linking Cys91 and Cys157; A selenomethionine form was used for phasing; also called wild-type Mal-TIR; TIR domain of the human Mal molecule; source: E. coli BL21 (DE3) codon plus, purified (Ni-NTA, PreScission digestion, anion exchange)) SSRWSKDYDVCVCHSEEDLVAAQDLVSYLEGSTASLRCFLQLRDATPGGAIVSELCQALSSSHCRVLLITPGFLQDPWCKYQMLQALTEAPGAEGCTIPLLSGLSRAAYPPELRFMYYVDGRGPDGGFRQVKEAVMRYLQTLS | binds |
| – | binds | binds | Myc-Mal-TIR D96A (domain or fragment, human, UniProt P58753 79-221, looked up, Mal (TIRAP), human, UniProtKB P58753, TIR domain residues 79-221; source: E. coli, purified (Ni-NTA, desalting)) SSRWSKDYDVCVCHSEEALVAAQDLVSYLEGSTASLRCFLQLRDATPGGAIVSELCQALSSSHCRVLLITPGFLQDPWCKYQMLQALTEAPGAEGCTIPLLSGLSRAAYPPELRFMYYVDGRGPDGGFRQVKEAVMRYLQTLS | – |
| – | – | binds | Myc-Mal-TIR D96N (domain or fragment, human, UniProt P58753 79-221, looked up, Mal (TIRAP), human, UniProtKB P58753, TIR domain residues 79-221, natural variant D96N; source: E. coli, purified (Ni-NTA, desalting)) SSRWSKDYDVCVCHSEENLVAAQDLVSYLEGSTASLRCFLQLRDATPGGAIVSELCQALSSSHCRVLLITPGFLQDPWCKYQMLQALTEAPGAEGCTIPLLSGLSRAAYPPELRFMYYVDGRGPDGGFRQVKEAVMRYLQTLS | – |
| – | – | binds | Myc-Mal-TIR E108A (domain or fragment, human, UniProt P58753 79-221, looked up, Mal (TIRAP), human, UniProtKB P58753, TIR domain residues 79-221; source: E. coli, purified (Ni-NTA, desalting)) SSRWSKDYDVCVCHSEEDLVAAQDLVSYLAGSTASLRCFLQLRDATPGGAIVSELCQALSSSHCRVLLITPGFLQDPWCKYQMLQALTEAPGAEGCTIPLLSGLSRAAYPPELRFMYYVDGRGPDGGFRQVKEAVMRYLQTLS | – |
| – | – | binds | Myc-Mal-TIR L165A (domain or fragment, human, UniProt P58753 79-221, looked up, Mal (TIRAP), human, UniProtKB P58753, TIR domain residues 79-221; source: E. coli, purified (Ni-NTA, desalting)) SSRWSKDYDVCVCHSEEDLVAAQDLVSYLEGSTASLRCFLQLRDATPGGAIVSELCQALSSSHCRVLLITPGFLQDPWCKYQMLQAATEAPGAEGCTIPLLSGLSRAAYPPELRFMYYVDGRGPDGGFRQVKEAVMRYLQTLS | – |
| – | – | binds | Myc-Mal-TIR F117A (domain or fragment, human, UniProt P58753 79-221, looked up, Mal (TIRAP), human, UniProtKB P58753, TIR domain residues 79-221; source: E. coli, purified (Ni-NTA, desalting)) SSRWSKDYDVCVCHSEEDLVAAQDLVSYLEGSTASLRCALQLRDATPGGAIVSELCQALSSSHCRVLLITPGFLQDPWCKYQMLQALTEAPGAEGCTIPLLSGLSRAAYPPELRFMYYVDGRGPDGGFRQVKEAVMRYLQTLS | – |
| – | binds | binds | Myc-Mal-TIR S180L (domain or fragment, human, UniProt P58753 79-221, looked up, Mal (TIRAP), human, UniProtKB P58753, TIR domain residues 79-221, natural variant S180L; also called Mal S180L; source: E. coli, purified (Ni-NTA, desalting)) SSRWSKDYDVCVCHSEEDLVAAQDLVSYLEGSTASLRCFLQLRDATPGGAIVSELCQALSSSHCRVLLITPGFLQDPWCKYQMLQALTEAPGAEGCTIPLLLGLSRAAYPPELRFMYYVDGRGPDGGFRQVKEAVMRYLQTLS | – |
| binds | – | – | Myc-Mal-TIR R192A (domain or fragment, human, UniProt P58753 79-221, looked up, Mal (TIRAP), human, UniProtKB P58753, TIR domain residues 79-221; source: E. coli, purified (Ni-NTA, desalting)) SSRWSKDYDVCVCHSEEDLVAAQDLVSYLEGSTASLRCFLQLRDATPGGAIVSELCQALSSSHCRVLLITPGFLQDPWCKYQMLQALTEAPGAEGCTIPLLSGLSRAAYPPELAFMYYVDGRGPDGGFRQVKEAVMRYLQTLS | – |
| binds | – | – | Myc-Mal-TIR D87A (domain or fragment, human, UniProt P58753 79-221, looked up, Mal (TIRAP), human, UniProtKB P58753, TIR domain residues 79-221; source: E. coli, purified (Ni-NTA, desalting)) SSRWSKDYAVCVCHSEEDLVAAQDLVSYLEGSTASLRCFLQLRDATPGGAIVSELCQALSSSHCRVLLITPGFLQDPWCKYQMLQALTEAPGAEGCTIPLLSGLSRAAYPPELRFMYYVDGRGPDGGFRQVKEAVMRYLQTLS | – |
